According to article PMC5670239 (2017):

T1: ARS2 763-871 (Homo sapiens, UniProt Q9BXP5)
T1 chain: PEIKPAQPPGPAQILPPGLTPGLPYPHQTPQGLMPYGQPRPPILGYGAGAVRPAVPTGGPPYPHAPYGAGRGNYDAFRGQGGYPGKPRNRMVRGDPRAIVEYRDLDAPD

T2: NELF-E 244-380 (Homo sapiens, UniProt P18615)
T2 chain: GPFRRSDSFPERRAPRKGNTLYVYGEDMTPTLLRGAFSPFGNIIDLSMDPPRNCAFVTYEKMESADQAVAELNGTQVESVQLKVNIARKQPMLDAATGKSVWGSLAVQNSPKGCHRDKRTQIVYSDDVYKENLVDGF

T3: NELF-E 360-380 (Homo sapiens, UniProt P18615, m7GTP)
T3 chain: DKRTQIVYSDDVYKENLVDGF

T4: ARS2 827-871 (Homo sapiens, UniProt Q9BXP5, m7GTP)
T4 chain: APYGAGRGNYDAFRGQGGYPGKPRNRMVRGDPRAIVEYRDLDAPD

T5: ARS2 845-871 (Homo sapiens, UniProt Q9BXP5, m7GTP)
T5 chain: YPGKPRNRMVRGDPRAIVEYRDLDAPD

T6: PHAX 103-308 (Homo sapiens, UniProt Q9H814)
T6 chain: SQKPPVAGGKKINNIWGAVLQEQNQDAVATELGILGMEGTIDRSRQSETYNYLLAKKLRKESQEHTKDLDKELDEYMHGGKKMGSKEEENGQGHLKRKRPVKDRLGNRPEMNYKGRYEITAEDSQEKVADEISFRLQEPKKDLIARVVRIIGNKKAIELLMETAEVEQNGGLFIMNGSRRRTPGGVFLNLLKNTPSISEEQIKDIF


Assays:
Experiment in all cases: ITC
ARS2 763-871 = target: T1, ARS2 763-871
NELF-E 244-380 = target: T2, NELF-E 244-380
NELF-E 360-380 = target: T3, NELF-E 360-380
ARS2 827-871 = target: T4, ARS2 827-871
ARS2 845-871 = target: T5, ARS2 845-871
PHAX 103-308 = target: T6, PHAX 103-308
PHAX = PHAX (Homo sapiens, UniProt Q9H814)
Sequence of PHAX (Q9H814 2-394): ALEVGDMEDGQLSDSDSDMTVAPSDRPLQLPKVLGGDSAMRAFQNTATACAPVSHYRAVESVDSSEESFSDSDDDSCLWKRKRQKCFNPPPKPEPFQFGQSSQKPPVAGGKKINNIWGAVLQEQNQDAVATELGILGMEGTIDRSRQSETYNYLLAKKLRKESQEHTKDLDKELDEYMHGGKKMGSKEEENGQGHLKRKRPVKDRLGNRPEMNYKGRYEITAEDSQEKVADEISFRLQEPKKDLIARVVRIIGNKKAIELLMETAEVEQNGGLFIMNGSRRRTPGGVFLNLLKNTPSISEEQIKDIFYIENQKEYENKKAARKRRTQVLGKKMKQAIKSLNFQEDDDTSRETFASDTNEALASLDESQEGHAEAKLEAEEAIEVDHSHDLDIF

Kd (ARS2 763-871) [nM]	Kd (NELF-E 244-380) [nM]	Kd (NELF-E 360-380) [nM]	Kd (ARS2 827-871) [nM]	Kd (ARS2 845-871) [nM]	Kd (PHAX 103-308) [nM]	Kd (PHAX) [nM]	Binder
1000	~50	–	–	–	–	–	CBC (protein, m7GTP) chain 1: MSRRRHSDENDGGQPHKRRKTSDANETEDHLESLICKVGEKSACSLESNLEGLAGVLEADLPNYKSKILRLLCTVARLLPEKLTIYTTLVGLLNARNYNFGGEFVEAMIRQLKESLKANNYNEAVYLVRFLSDLVNCHVIAAPSMVAMFENFVSVTQEEDVPQVRRDWYVYAFLSSLPWVGKELYEKKDAEMDRIFANTESYLKRRQKTHVPMLQVWTADKPHPQEEYLDCLWAQIQKLKKDRWQERHILRPYLAFDSILCEALQHNLPPFTPPPHTEDSVYPMPRVIFRMFDYTDDPEGPVMPGSHSVERFVIEENLHCIIKSHWKERKTCAAQLVSYPGKNKIPLNYHIVEVIFAELFQLPAPPHIDVMYTTLLIELCKLQPGSLPQVLAQATEMLYMRLDTMNTTCVDRFINWFSHHLSNFQFRWSWEDWSDCLSQDPESPKPKFVREVLEKCMRLSYHQRILDIVPPTFSALCPANPTCIYKYGDESSNSLPGHSVALCLAVAFKSKATNDEIFSILKDVPNPNQDDDDDEGFSFNPLKIEVFVQTLLHLAAKSFSHSFSALAKFHEVFKTLAESDEGKLHVLRVMFEVWRNHPQMIAVLVDKMIRTQIVDCAAVANWIFSSELSRDFTRLFVWEILHSTIRKMNKHVLKIQKELEEAKEKLARQHKRRSDDDDRSSDRKDGVLEEQIERLQEKVESAQSEQKNLFLVIFQRFIMILTEHLVRCETDGTSVLTPWYKNCIERLQQIFLQHHQIIQQYMVTLENLLFTAELDPHILAVFQQFCALQA chain 2: SGGLLKALRSDSYVELSQYRDQHFRGDNEEQEKLLKKSCTLYVGNLSFYTTEEQIYELFSKSGDIKKIIMGLDKMKKTACGFCFVEYYSRADAENAMRYINGTRLDDRIIRTDWDAGFKEGRQYGRGRSGGQVRDEYRQDYDAGRGGYGKLAQNQ
–	~400	~3300	1000	1100	600	300	CBC (protein) chain 1: MSRRRHSDENDGGQPHKRRKTSDANETEDHLESLICKVGEKSACSLESNLEGLAGVLEADLPNYKSKILRLLCTVARLLPEKLTIYTTLVGLLNARNYNFGGEFVEAMIRQLKESLKANNYNEAVYLVRFLSDLVNCHVIAAPSMVAMFENFVSVTQEEDVPQVRRDWYVYAFLSSLPWVGKELYEKKDAEMDRIFANTESYLKRRQKTHVPMLQVWTADKPHPQEEYLDCLWAQIQKLKKDRWQERHILRPYLAFDSILCEALQHNLPPFTPPPHTEDSVYPMPRVIFRMFDYTDDPEGPVMPGSHSVERFVIEENLHCIIKSHWKERKTCAAQLVSYPGKNKIPLNYHIVEVIFAELFQLPAPPHIDVMYTTLLIELCKLQPGSLPQVLAQATEMLYMRLDTMNTTCVDRFINWFSHHLSNFQFRWSWEDWSDCLSQDPESPKPKFVREVLEKCMRLSYHQRILDIVPPTFSALCPANPTCIYKYGDESSNSLPGHSVALCLAVAFKSKATNDEIFSILKDVPNPNQDDDDDEGFSFNPLKIEVFVQTLLHLAAKSFSHSFSALAKFHEVFKTLAESDEGKLHVLRVMFEVWRNHPQMIAVLVDKMIRTQIVDCAAVANWIFSSELSRDFTRLFVWEILHSTIRKMNKHVLKIQKELEEAKEKLARQHKRRSDDDDRSSDRKDGVLEEQIERLQEKVESAQSEQKNLFLVIFQRFIMILTEHLVRCETDGTSVLTPWYKNCIERLQQIFLQHHQIIQQYMVTLENLLFTAELDPHILAVFQQFCALQA chain 2: SGGLLKALRSDSYVELSQYRDQHFRGDNEEQEKLLKKSCTLYVGNLSFYTTEEQIYELFSKSGDIKKIIMGLDKMKKTACGFCFVEYYSRADAENAMRYINGTRLDDRIIRTDWDAGFKEGRQYGRGRSGGQVRDEYRQDYDAGRGGYGKLAQNQ
